Source: the DeepSol protein solubility set

Experiment: soluble on expression in E. coli; label from the status in PepcDB or PDB records
With “MKAARQQAIVDLLINHKSLTTEALATRLNVSKETIRRDLSELQTQGKVLRNHGRAKYIHRENQDSGDPFHIRLKSHYAHKADIAREALAWIEEGMTIALDASSTCWYLARQLPDIPIQVFTNSHPICQELGKRERIALISSGGQLERKYGCYVNPSLISQLKSLDIDLFIFSCEGIDSGGDLWDSNAINADFKSILLRRASQSLLLIDKSKFNRSGEARIGHLDDVTHIVSDAPQSLEHHHHHH” the “soluble on expression in E. coli” value was “soluble”.
With “SLGNSYAGQLKTTRFEEVLHNSIEASLRSNNLVPRPIFSQLYLEAEQQLAALEGGSRVDNEEEEEEGEGGLETNGPPNPFQLHPLPEGCCTTDGFCQAGKDLRLVSISNEPMDVPAGFLLVGVKSPSLPDHLLVCAVDKRFLPDDNGHNALLGFSGNCVGCGKKGFCYFTEFSNHINLKLTTQPKKQKHLKYYLVRNAQGTLTKGPLICWKGSEFRSRQIPASTCSSSLFPALESTAAFPSEPVPGTNPSILMGAQQAGPASDHPSLNAAMGPAVFNGKDSPKCQQLAKNNLLALPRPSALGILSNSGPPKKRHKGWSPESEG” the “soluble on expression in E. coli” value was “soluble”.
In the case of “ARVDQTPRSVTKETGESLTINCVLRDASYALGSTCWYRKKSGEGNEESISKGGRYVETVNSGSKSFSLRINDLTVEDGGTYRCGLGVAGGYCDYALCSSRYAECGDGTAVTVN”, the “soluble on expression in E. coli” value is reported as “soluble”.
In the case of “MVINIRRSRPDEGDKLTAIWCRSVDATHDFLTKAYRKELEEMVRAFLPEAPLWVAVSTEDQPIAFMLLTGDHMDALFVDPDVRGCGVGKLLIEHALSLTPKLTTNVNEQNEQAVGFYQKMGFRVTGRSETDDLGQPYPLLNLMYEQQAEADYD”, the “soluble on expression in E. coli” value is reported as “not soluble”.
For “VLHQPPAMSSALGTTIRLTCTLRNDHDIGVYSVYWYQQRPGHPPRFLLRYFSQSDKSQGPQVPPRFSGSKDVARNRGYLSISELQPEDEAMYYCAMGARSTHVFGSGTQLTVLSAA”, the “soluble on expression in E. coli” value was “soluble”.
In the case of “MGSDKIHHHHHHGCKEKDMSMKMNEPHNIKGVISYKRSFGDLNDTHLSVAKKIGIRPLASRSEAEGLGGKLVQIKPCERYAMDSLTHSIPFLIPQASALLDTIGANFLDSLSCKGLNPNQIIVTSVLRTADDVKRLRRRNGNASANSAHAFGTTFDVSYRRFCKVEDPDGRPMQDVSPDTLKLVLAEVLRDLRKSDKCYIKYELKQGCFHITAR”, the “soluble on expression in E. coli” value is reported as “not soluble”.
In the case of “MAHHHHHHMGKAAKGRTAMPGKLDTTEADKRTPKSIIIYRGEVGIHVRSLMHEWRNVFLPWSSKKLHGKNKSLKDFLAVAATFSASHLQLFTAPSQGTSLRIMRFFNGPTLSFRVLSFTLHKEIVAKQRRPVAVDRAAWEVAPIVVLNNFTHPDLAHRAEVPLLTATFKALFPSLNVQTIQSSEIQRICLFHYDHVEHVVEVRHYYINARTVGVTKTVKKLLENRRPTKLGTLESIDEVLDREDAWSDTDGEGEEVPLVQPFRQHREQCRVKLQEIGPRMTLQLSKVENGFAGGEVIYHRTEKKTLREVQVNASKVRARKTEKAKRRALQDENVQRKRQKREDKLERKHQRREAAAEAQQANPFEVAHGDGDGDGYAAGDEE”, the “soluble on expression in E. coli” value is reported as “soluble”.
For “MVTFNCEVCNDTVPKKNTEKHYYRCPNAYYTCIDCSKTFEDGVSYKNHTSCISEDEKYQKALYKGNKKQKQKQQQKQQQKQHQHQPVATPAKKVEKPVIKKAEKVEKTSNGIELHKGKSLYKILKTMKDKGAKKTFLKSLVVDSEGQIRYAKE”, the “soluble on expression in E. coli” value was “soluble”.
In the case of “MATFNLNGLGTPKSATYDNESAYRELLSRVNNGESIVVSVYTDKDNYPAFGIETKKVARFKVRVNQSLLSLLVGYLNNSTVNEDTVRANEVEPNEEGQDFTTDLFKLLIDEGFTPQIAPLFRTVYGYVNAVFNFPNGRMYFRLEHTDELMDYLADKKLL”, the “soluble on expression in E. coli” value is reported as “not soluble”.
For “MSLSCWKPLSKEEFEAIVSKYKDNPKIEIDYENLKFIPKFNEQIKKYYSNKIKGAKVENLVNEVYEAWFDYIIRIYERPKEKDILMFLPCAAKKPYYKSKTHRTIQRAISGFQIFNRIHRVIVSNPGIIPWEFHTYWPFNSYDWPEWEETEDIKKLYYWVTYKRVKEFLRRHQYNYYTVYMKPDSLTYKAVMDASKELNIKIIPLLDEKTYEKCKGQGNPLVKEPCIESLKNNLKQLQKQIYEGSNSEGHHHHHH”, the “soluble on expression in E. coli” value was “soluble”.
In the case of “LSDDRYFIFFNQPKTPEESIQLLGAQAGDTESFRVTLDRIPPQIQKLSFTATLDGAGQMSQVAPGYLRIVAGGEEVARYSFTGSEFSTERAVMLGDFYLKDVWRFAAVGQGFDGGLDALLKNFGGEVAEEEPAVPAQTQSGAAPSFAPPAFGAPAAPAPAPAPAPQPAQGFTPPPGPTPPPAPAPAPSVHAAPTIVGPLHTPPGGTVPPPGPAPYAQ”, the “soluble on expression in E. coli” value is reported as “not soluble”.
With “AHHHHHHGSKTLKVYIPGIKFPSISVTGNYCALNCAHCGRHYLEGMKKITRLNLVDKCVEMEKEGYVGCLLSGGMDSRLKVPLDKFKDEIREIKEKTRLKINAHVGFIDEDDLEWLKYIDVVSLDFVGDNEVIKRVYKIDKTVNDYLKILDILTKERIKVAPHITIGLDFGRIHWEYEAIDLLSEYPIDVLVLNILIPTPGTEMENVKVSMEEALNVVRYAREEFKGELSIGCMRPFGRWREEFDKRAILIGVDRITNPPRKVIEWAKQFRKVEIHFECCVI” the “soluble on expression in E. coli” value was “not soluble”.
For “QKDFSWNASLLYAFNRNKVKHISVQPSLWDSRISMPTSYPMVGKPLYGIYAYKWAGLNENGDPQVYDAENNVTSGPARDYHALVYCGTTVPIHNASLTNVLRYKGFEFSAMLILDAGHKLRSSNIPSINMSNGRITSTAKGIVDRWTQPGDVTDVPRLLFSNDTENFNTHRTELYRYSDLFVYDASNIRLSNISLAYRVPAHWCKKISLSGARLQFNVENVATFAFDSKANYDLGGKVKPNYVWGLYLNF”, the “soluble on expression in E. coli” value was “not soluble”.
